The text below walks through data of US20260209387A1, “SINGLE-DOMAIN ANTIBODY FOR INHIBITION OF NEUTROPHIL ELASTASE ACTIVITY” (UNIVERSITE DE LIEGE, priority 2023, published 2026).

One series concerns the target T1, mNE (Mus musculus, UniProt Q3UP87).
T1 sequence (Q3UP87 27-265): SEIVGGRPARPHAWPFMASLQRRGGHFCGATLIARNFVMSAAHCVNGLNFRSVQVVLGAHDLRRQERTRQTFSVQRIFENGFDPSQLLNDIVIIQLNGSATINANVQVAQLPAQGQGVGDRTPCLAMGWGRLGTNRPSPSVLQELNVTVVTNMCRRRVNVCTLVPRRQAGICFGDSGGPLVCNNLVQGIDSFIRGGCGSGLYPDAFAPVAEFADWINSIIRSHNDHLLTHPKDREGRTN
Put plainly: Affinity of NbE201 for mNE by BLI. In kind it is binding. As to the method: For mNE, NbE201_Cter Biot was immobilized on SA biosensors (Sartorius) via the C-terminal biotin following the provider's indications. Then, the biosensors were immersed in a solution of mNE at different concentrations (100-50-25-12.5-6.25-3.125 nM). Association and dissociation kinetics were measured for 300 s and 600 s respectively. All the experiments (for both hNE and mNE) were carried out at 30° C. in 384-wells black-bottom microplates in polypropylene (Greiner Bio-One, Belgium) and with orbital agitation (1000 rpm). The obtained sensorgrams were fitted to a 1:1 model by using the Data Analysis Octet Software Version 10.0 (Sartorius) to derive the rate constants for association (kon) and dissociation (koff) and the equilibrium dissociation constant (KD-koff/kon).

Series [1] is described as follows: Urea-induced unfolding (intrinsic fluorescence, far UV-CD). In kind it is physicochemical. The note with it: pH 7, 25° C. As to the method:
1.11.1. Preparation of the samples. Samples of NbE201 were incubated overnight at 25° C. in the presence of increasing concentrations of urea (Sigma-Aldrich) in 0.05 M NaP buffer pH 7. The protein concentration was 0.2 mg mL-1. The denaturant concentration in each sample was determined from refractive index measurements (Pace, C. N., 1986, doi.org/10.1016/0076-6879 (86) 31045-0), using a R5000 hand refractometer from Atago (Tokyo, Japan). The same samples were used to measure both the intrinsic fluorescence and far ultraviolet circular dichroism (UV-CD) spectra. Blank samples (without the Nb) every 1 M urea were prepared to make a reference curve that was used to correct the contribution of (buffer+urea) for fluorescence and circular dichroism (CD) signal at each urea concentration.
1.11.2. Measurements of fluorescence and far-UV-CD signals/spectra. Intrinsic fluorescence spectra to monitor changes in the tertiary structure were recorded at 25° C. from 305 nm to 440 nm after excitation at 280 nm with 5 nm excitation and emission slits using a Cary Eclipse Fluorimeter (Agilent, Santa Clara, USA) equipped with a thermostatically controlled multi-cuvette holder and a 10*0.4 mm pathlength quartz micro cuvette. The voltage applied at the detector was 710 V. Data acquisition was made every 0.5 nm with a scan rate of 30 nm·min^−1.
Far UV-CD spectrum of the native and denatured states (i.e. in 9 M urea) were recorded from 190 nm to 260 nm in a 0.2 mm pathlength quartz cuvette at 25° C. […] were recorded with a 0.1 nm data interval, a data pitch of 0.1 nm, 2 s integration time, a bandwidth of 1 nm and a scanning speed of 50 nm/min. The unfolding transitions were monitored by far UV-CD at 207 nm in a 0.2 mm pathlength quartz cuvette. At each denaturant concentration, 37 data points were acquired with a 1 nm bandwidth, a reading frequency of 5 s and a 4 s integration time, and averaged. The measurements were carried out with Jasco J-810 spectropolarimeter, (JASCO, Lisses, France) equipped with a Peltier cell holder.
1.11.3. Data analysis. The intrinsic fluorescence spectra were fitted using a five parameter Weibull function (from software SigmaPlot 5.0) to determine the wavelength corresponding to the highest fluorescence intensity (λmax). The changes in fluorescence intensity at 337 nm were also used to monitor the unfolding transition. The transition curves obtained were analyzed based on a two-state (N ? U) model according to Dumoulin et al. (doi: 10.1110/ps.34602) and equation 1:
where x is the concentration in denaturant and a=(ΔG°NU(H2O)−m*[D])/RT, and yobs is the monitored signal (i.e. λmax, F337 nm or CD207 nm) at a given denaturant concentration, and YN and YU are the values of these signals for the native and denatured states, respectively in the absence of denaturant. ΔG°NU(H2O) is the difference in free energy between the folded and unfolded states at 25° C.; m is a measure of the dependence of the free energy on the denaturant concentration, and [D] is the denaturant concentration. p and q are the slopes of the pre- and post-unfolding baselines, respectively, R is the gas constant, and T is the absolute temperature. Cm, the denaturant concentration at the midpoint of the denaturation curve ([U]/[N]=1) is defined as ΔG°NU(H2O)/m.

B1: NbE201: anti-hNE ISVD (VHH/nanobody) from immunized lama, amino acid sequence SEQ ID NO: 4 (protein)
VHH: QVQLQESGGGLVQAGGSLRLSCVVPGRTISLYRMGWFRQAPGKEREFVAGINWSGDMTDYVDSVKGRFTISRDNAKNTVYLEMNSLKPEDTAIYYCTADPKLLPLADSSYGYWGQGTQVTVSS
For orientation: koff means the first-order rate constant of dissociation. What is called kon is the rate constant with which the complex forms. A low value points to slower complex formation. In the case of B1, the dissociation rate constant (koff) in the series with mNE amounted to 0.019 s⁻¹. Besides, the kon with mNE was 390000 M⁻¹ s⁻¹. Also, the Cm in series [1] (CD) is given as 5.8 M; in series [1] (F (337 nm)), 5.8 M; in series [1] (F (λmax)), 6.0 M; in series [1] (Mean ± SD of the three probes) it was 5.9 ± 0.1 M. Further, the m is reported as 7.7 kJ · mol^−1 M^−1 in series [1] (CD), 6.7 kJ · mol^−1 M^−1 in series [1] (F (337 nm)), 6.5 kJ · mol^−1 M^−1 in series [1] (F (λmax)) and 7.0 ± 0.5 kJ · mol^−1 M^−1 in series [1] (Mean ± SD of the three probes). Further, the “ΔG°NU(H2O)” value in series [1] (CD) is 10.6 kcal/mol; in series [1] (F (337 nm)) it was 9.32 kcal/mol; in series [1] (F (λmax)) it was 9.35 kcal/mol; in series [1] (Mean ± SD of the three probes), 9.75 ± 0.598 kcal/mol.
